In publication PMC4670574 (2016):
Square brackets hold non-standard residues; d marks the D form. Ends that are not written are not given here. pT = C[C@@H](OP(=O)(O)O)[C@H](N)C(=O)O

Biological target: T1, pCdc25C phosphopeptide (Homo sapiens)
T1 chain: EQPL[pT]PVTDL
Experiment: ITC

Kd: > 1000 µM
B1: Pin1 isolated PPIase domain PPIase domain (protein)
chain: PARVRCSHLLVKHSQSRRPSSWRQEKITRTKEEALELINGYIQKIKSGEEDFESLASQFSDCSSAKARGDLGAFSRGQMQKPFEDASFALRTGEMSGPVFTDSGIHIILRTE
